Data set [1] deals with T1, TAS1 (Rh-based peptide/peptoid hybrid probe, Leu-Leu-Val-Tyr-Rh110-peptoid).
T1 sequence: LLVY

For data set [2], the system named is T2, library peptide Leu-Leu-Val-Ala-Ala-Ala (negative control).
T2 sequence: LLVAAA

B1: 20S core particle (20S CP) of the proteasome, purified (enzyme, part only; not given: other 20S alpha and beta subunits)
chain: TTTLAFKFRHGVIVAADSRATAGAYIASQTVKKVIEINPYLLGTMAGGAADCSFWERLLARQCRIYELRNKERISVAAASKLLANMVYQYKGMGLSMGTMICGWDKRGPGLYYVDSEGNRISGATFSVGSGSVYAYGVMDRGYSYDLEVEQAYDLARRAIYQATYRDAYSGGAVNLYHVREDGWIRVSSDNVADLHEKYSGSTP
Turning to B1, the Rate of Hydrolysis (ΔRFU/min), probe at 30 µM with purified 20S CP in data set [1] was 83.2 ΔRFU/min. Moreover, the “percent cleavage by LC/MS, 12 µM peptide with 9 nM 20S CP for one hour” value in data set [2] is given as “less than 10% of the peptide cleaved”.

For the origin of these results see US20230108494.
